Our source for the stoichiometry N values is article PMC12305020.

The target in the assay is Tom20 (Chaetomium thermophilum) (Chaetomium thermophilum). The assay is described as follows: cryo-EM structure; TOM complex purified by Tom22-FLAG in GDN, with or without pALDH (maps showed no differences); core 2.7 Å and holo 3.2 Å (pALDH-incubated), core 3.2 Å and holo 3.8 Å (preprotein-free), C2 symmetry imposed.

By stoichiometry N is commonly meant a count of units in the complex or per binding partner.

“Tom20 (Chaetomium thermophilum) (receptor)” gave a stoichiometry N of 2.
